Reference: patent publication US20120201835A1 (MERCK, published 2012)
Numbering of substitutions follows the chain as printed.

B1: RH2-18 antibody (antibody, human IgG2, lambda, V domains shown)
VH: EVQLVQSGAEVKKPGASVKVSCKASGYTFTDYYIHWVRQAPGQGLEWMGWIHSNSGATTYAQKFQARVTMSRDTSSSTAYMELSRLESDDTAMYFCSREDYWGQGTLVTVSS
VL: QSVLTQPPSVSGAPGQRVTISCTGSSSNIGAGYDVHWYQQLPGTAPKLLIYGYSNRPSGVPDRFSGSKSGASASLAITGLRPDDEADYYCQSYDNSLSSYVFGGGTQLTVLS
notes: also called anti-Dkk-1 antibody RH2-18
B2: RH2-59 scFv (phage clone) (scFv, V domains shown)
VH: B1 VH with Q104R, L107M
VL: QAVLTQPSSVSGAPGQRVTISCTGSSSNIGAGYDVHWYQQLPGTAPKLLIYANTNRPSGIPDRFSGSKSGTSASLAITGLQTEDEADYYCQSYDTSPSASYVFGTGTKLTVLG
notes: Single chain Fv from the CAT phage display library (CS)
B3: RH2-59 antibody (antibody, human IgG2, lambda, V domains shown)
VH: B1 VH with Q104R, L107M
VL: B2 VL
notes: IgG converted from the scFv, IgG2M4 heavy chain constant region
B4: RH2-80 antibody (antibody, human IgG2, lambda, V domains shown)
VH: B1 VH with Q104K, L107M
VL: QAVLTQPSSVSGAPGQRVSISCTGSSSNIGAAYDVHWYQQLPGTAPRLLIYVNNNRPSGVPDRFSGSKSGTSASLVIAGLQAEDEADYYCQSYDNSLNAYVFGTGTKLTVLG
notes: as for B3
B5: RH2-18 scFv (phage clone) (scFv, V domains shown)
VH: EVQLVQSGAEVKKPGASVKVSCKASGYTFTDYYIHWVRQAPGQGLEWMGWIHSNSGATTYAQKFQARVTMSRDTSSSTAYMELSRLESDDTAMYFCSREDYWGQGTLVTV
VL: B1 VL
notes: as for B2
B6: RH2-80 scFv (phage clone) (scFv, V domains shown)
VH: B1 VH with Q104K, L107M
VL: B4 VL
notes: as for B2
B7: RH1-10 antibody (antibody, human IgG2, lambda, V domains shown)
VH: QVQLLQSAAEVKKPGESLKISCKGSGYDFPGYYLHWVRQAPGQGLEWMGWINANSGATNYAQNFQGRVTMTRDTSISAAYMELSSLRSDDTAVYYCTREDHWGRGTTVTVSS
VL: QSVLTQPPSASGAPGQRVTISCTGSSSNIGAGYDVHWYQQLPGAAPKLLIYGNSNRPSGVPDRFSGSKSGTSASLAITGLQAEDEADYYCQSYDSSLSGYVFGTGTKVTVLG
notes: as for B3
B8: RH1-10 scFv (phage clone) (scFv, V domains shown)
VH: B7 VH
VL: B7 VL
notes: Single chain Fv from the CAT phage display library (BMV)

Tests used:
[1] = molecular target: Rhesus monkey Dkk-1 (Rhesus monkey); assay: cell-based or functional assay
[2] = molecular target: Rhesus monkey Dkk-1 (Rhesus monkey); assay: SPR, Biacore 3000, mean of several independent runs
Human Dkk-1 [3] = molecular target: T1, Human Dkk-1 (human, UniProt O94907 32-266); assay: as above
T1 sequence: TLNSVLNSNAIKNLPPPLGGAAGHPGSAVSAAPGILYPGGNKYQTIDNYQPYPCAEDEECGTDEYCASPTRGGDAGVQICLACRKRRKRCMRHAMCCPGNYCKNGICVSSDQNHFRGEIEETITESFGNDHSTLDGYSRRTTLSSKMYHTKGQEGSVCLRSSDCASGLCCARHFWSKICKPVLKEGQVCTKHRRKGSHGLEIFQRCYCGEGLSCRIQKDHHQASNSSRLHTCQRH
Procedure: (§1) The affinity of the RH2-18 antibody for human Dkk-1 and Rhesus Dkk-1 was determined by measuring RH2-18 binding kinetics by surface plasmon resonance in a Biacore 3000 instrument according to manufacturer's instructions (Biacore, Inc., Piscataway, N.J.). Several independent affinity studies were performed using different RH2-18 antibody lots against human Dkk-1 and rhesus Dkk-1.

[4] = molecular target: Rhesus monkey Dkk-1 (Rhesus monkey); assay: dot blot of native recombinant proteins, 0.1 ng to 100 ng
[5] = molecular target: Rhesus monkey Dkk-1 (Rhesus monkey); assay: TRF cell assay, inhibition of Eu-Dkk-1 binding to HEK293hLrp5 cells
[6] = molecular target: Rhesus monkey Dkk-1 (Rhesus monkey); assay: SPR, Biacore 3000, several independent runs with different antibody lots
Mouse Dkk-1 [7] = molecular target: T2, Mouse Dkk-1 (mouse, UniProt O54908 32-272); assay: TRF cell assay, inhibition of Eu-labeled mouse Dkk-1 binding to cells
T2 construct: Recombinant; also called MsDkk-1; murine Dkk-1
T2 sequence (looked up): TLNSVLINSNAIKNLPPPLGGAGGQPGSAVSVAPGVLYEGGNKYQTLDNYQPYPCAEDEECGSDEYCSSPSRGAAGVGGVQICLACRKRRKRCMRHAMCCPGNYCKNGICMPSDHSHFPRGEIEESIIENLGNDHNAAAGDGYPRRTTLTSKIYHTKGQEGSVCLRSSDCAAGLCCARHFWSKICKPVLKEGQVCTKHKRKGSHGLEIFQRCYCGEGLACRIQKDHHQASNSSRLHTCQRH
Procedure: For the assay, the anti-Dkk-1 antibodies were added to HEK cells overexpressing LRP5 (HEK293hLrp5 cells) at final concentrations of 0.2, 0.6, 2.0, 6.0, and 20 nM. Anti-IL3 Receptor monoclonal antibody (8B4) was used as a negative control. Eu-labeled Dkk-1 (100 pM) was incubated with the cells in absence or presence of the antibodies for 20 minutes. Dkk-1 bound in solution by the antibodies and thus blocked from binding to the cell surface of the HEK293hLrp5 cells was removed by 4× wash steps and Eu-labeled Dkk-1 bound to cell surface was measured by TRF signal. Eu-labeled Dkk-1 protein binding to HEK293 cells overexpressing human LRP5 or LRP6 was monitored by measuring the time-resolved fluorescence of bound ligand.

Human Dkk-1 [8] = molecular target: T1, Human Dkk-1; assay: SPR, Biacore 3000, several independent runs with different antibody lots
Procedure: as §1

[9] = molecular target: Rhesus monkey Dkk-1 (Rhesus monkey); assay: TRF cell assay, inhibition of Eu-Dkk-1 binding to HEK293hLrp5 cells, extended dose range
[10] = molecular target: T3, Rhesus monkey Dkk-2 (chimeric protein: N-terminal region of rhesus Dkk-1 fused to the C-terminal region of … (Rhesus monkey)); assay: dot blot of native recombinant protein (0 to 100 ng per spot) probed with RH2-18
T3 chain: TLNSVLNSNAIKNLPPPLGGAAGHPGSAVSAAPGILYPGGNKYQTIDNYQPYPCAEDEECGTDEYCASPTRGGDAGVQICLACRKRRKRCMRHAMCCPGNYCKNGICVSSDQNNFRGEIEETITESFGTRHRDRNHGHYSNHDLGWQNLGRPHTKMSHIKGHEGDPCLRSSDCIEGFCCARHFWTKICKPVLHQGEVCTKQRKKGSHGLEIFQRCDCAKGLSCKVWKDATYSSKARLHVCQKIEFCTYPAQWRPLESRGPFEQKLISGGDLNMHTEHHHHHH
Procedure: Native recombinant rhesus monkey Dkk-1, Dkk-2, and cynomolgus monkey Dkk-4 proteins (0.1 ng to 100 ng) were used. A non-related recombinant protein was loaded as a control for non-specific assay signal (HIS protein) and probed with the RH2-18 antibodies.
The Dkk-1 amino acid sequence is closely related to that of Dkk-2 and Dkk-4 with 50% and 45% identity at the amino acid-level, respectively. Cross-reactivity of RH2-18 against rhesus monkey Dkk-2 (using a chimeric protein consisting of the N-terminal region of the rhesus Dkk-1 fused to the C-terminal region of the rhesus Dkk-2 with myc and His-6 tags at the C-terminal end of the Dkk-2 C-terminal region; see SEQ ID NO:71) and cynomolgus monkey Dkk-4 (SEQ ID NO:70) was tested by dot-blot analysis using recombinant proteins. Native recombinant rhesus monkey Dkk-1, Dkk-2, and cynomolgus monkey Dkk-4 proteins (0.1 ng to 100 ng) were used. A non-related recombinant protein was loaded as a control for non-specific assay signal (HIS protein). The dot blots were probed with RH2-18. […] Selectivity of the antibody towards Dkk-1 was minimally 100-fold.

[11] = molecular target: Rhesus monkey Dkk-1 (Rhesus monkey); assay: TRF cell-based blocking assay: Eu-labeled rhesus Dkk-1 binding to human LRP5 on HEK293hLrp5 cells, RH2-18 titrated over an extended range; no unit is printed beside the number or on the log axis, M follows from 4.75 nM in paragraph 132
Mouse Dkk-1 [12] = molecular target: T2, Mouse Dkk-1; assay: phage ELISA (+), scFv-phage on mouse Dkk-1
[13] = molecular target: Rhesus monkey Dkk-1 (Rhesus monkey); assay: TRF cell assay: inhibition of Eu-Dkk-1 binding to HEK293 cells overexpressing LRP5 or LRP6, scFv

Row | Binder | pTOPflash/Lef-1 luciferase reporter in HEK293hLrp5 cells, Wnt3A plus 50 nM rhesus Dkk-1 [1] | binding result (Mouse Dkk-1 [7]) | binding result (Mouse Dkk-1 [12]) | % inhibition of Dkk-1 [13] | other results
1 | B1 | > 30 nM | binds | – | – | endogenous ALP activity of C3H10T1/2 cells (osteoblastic differentiation), Wnt3A plus recombinant Dkk-1, 3 days [1]: 100 nM; Kd [2]: 858 pM; Kd (Human Dkk-1 [3]): 251 pM; detection limit for binding [4]: 1 ng; selectivity towards Dkk-1 (fold, against Dkk-2 and Dkk-4) [4]: > 100 fold; inhibitory activity (concentration) [5]: 4.75 nM; Kd [6]: 771 to 934 pM; Kd (Human Dkk-1 [8]): 202 to 269 pM; effective dose [9]: 5 nM; binding result [10]: no binding (tested: 100 ng); EC50 [11]: 4750 pM
2 | B2 | – | – | binds | 61% | –
3 | B3 | – | binds | – | – | –
4 | B4 | > 30 nM | binds | – | – | –
5 | B5 | – | – | binds | 74% | –
6 | B6 | – | – | binds | 62% | –
7 | B7 | > 30 nM | binds | – | – | –
8 | B8 | – | – | binds | 89% | –
